The record followed here is patent US20160376596A1 (BAVARIAN NORDIC A S, published 2016).

The assay addresses T1, B19 protein of chorioallantois vaccinia virus Ankara (CVA) (Vaccinia virus, strain Ankara (CVA), UniProt P23998 20-351).
T1 construct: also called orthopoxviral B19 protein
Kind of assay: statement in Example 3; no assay described for IFN-β.

B1: murine IFN-beta (ligand)
chain: INYKQLQLQERTNIRKCQELLEQLNGKINLTYRADFKIPMEMTEKMQKSYTAFAIQEMLQNVFLVFRNNFSSTGWNETIVVRLLDELHQQTVFLKTVLEEKQEERLTWEMSSTALHLKSYYWRVQRYLKLMKYNSYAWMVVRAEIFRNFLIIRRLTRNFQN
notes: also called IFN-β; murine IFN-β
B1: the binding result is recorded as “no binding”.
